{"source": "the DeepSol protein solubility set"}
{"experiment": "soluble on expression in E. coli; label from the status in PepcDB or PDB records"}
{"sequence": "MSEILFINGKVRFPITIDPTVWIFDDRKVDLTTYFDETRENTSELETYLKNTSEHWDREIRDGAAFPPIQQSVKKYKKEQLITGTFGIPFHPFLANAEILEDATQVEIETVDHTMTLPLETVKNAILGFSKEGKPLKEDGPVHLYFNDGSNQQNPIRNIRKFTII", "soluble on expression in E. coli": "not soluble"}
{"sequence": "MKKYSILLLPFILASCAPVSESQFTEQRLSELEIKVAKLEERQEKIEEQLEEINKRLDYITKSIAKREIKSYKEPEEEKPPFEEVKSTEDEKAEYENALELYKMKQLNEARDAFVEFIKKYPNSKYTDNAYFWLGKTFYELGNTERAKQIFNVLIKKCKSGELPDCNKLPDTYFMLVKISLDEGNIEEANRYLSILEEKFPDAEATQRAKELIYKTP", "soluble on expression in E. coli": "not soluble"}
{"sequence": "SHMEIVPDTSVVIDGRVSDQVKADADPDTDVDGMGFAGATVVVPEAVVGELEAQANDGRETGWEGLEELQTLVDLAEEGTIDVEYVGRRPDAIEKREAGEGQIDALIRDIAGDRDATLVTSDDVQAEVARAKGLAVEFVDPVKRTVDRLQIENFFDEG", "soluble on expression in E. coli": "not soluble"}
{"sequence": "MFRTQSRYLVRSILANHCVLPSTRMAVSPILNQSIKFYSSKDNATDKSQEKEQPKSILNDDMLARAGFEDVDPKEETSNSEEQATKQTGRKRKRAQTSKDLQRERYANMFYLSALIFGVAGVGYMSRDWDSEKEQEEMDGKNVENGYTPKLMYERLSKRLGSLFTFFSEPAFENLLPPPPPEQYRRPLTLVVTLDDFLIHSNWDTQHGWRTGKRPGLDYFLGYLSQYYEIVVFSSNSQIYSDKTVNKLDPYHAYISYALFREACRYKDGKLIKDLSLLNRDLGKTVMIDVDEDSAALQPENSIIVKKWEGQPDEYLISLIPFLEYLATQPVKDVRPILNSYKDKSNIVAEFAERENKLREQWRKDHGGNNGKPNAGNFIAKLLGIPVPEPKMPLDIIREHGQLQYEHFQKYLQENAHKFLEEEQKLKDEFGKVTLNKLITEGAPNAEEIAKVQQQRALEEAQKQQEGHK", "soluble on expression in E. coli": "not soluble"}
{"sequence": "MSLEQLNERTVLEYVEKTDLRKSILGDGKLSAQIISEGNVNLIFRICNIENGNSVILKQALPYAWRYPDFKMPVDRQRIEYETLSIESQYAPDYVPKIYFYDNKSHVLVIEDLKELKVMREALIDGEIFPKVAEHIGIFMAKTLFYTSDLYLSSGKKKEMVINFSNPVLCKVQEDLVFTQPYIDHPNNKWSKPLDEIVKKIHQDDKIRGEIFYFKELYMTKSQALIHNDLHTGSIMLNEKTTKVIDPEFAFYGPMAHDIGTYFANLAIAYAAQEAHRVEPGTRNVYREWIAESFEETWNVFQQRFLNAWEKDSNGEWPSESYRENYMLRLLKESAGFGAAEIFRRTIGMAHVHDFWTIKDENIRAKSESIALYIAINWINMWKDVEKIQDLSQVMKNSKPLEGHHHHHH", "soluble on expression in E. coli": "soluble"}
{"sequence": "MGSDKIHHHHHHMLEQKINVDNTALFEQLWGWTNELREKIDARFELHSDPSTENFKKYSALIGEAHGSVNTFSGPEIDWLVHSWLREPKSGFCNMHLTVWLKSQIHVPHLAIVFATVPELFFFIDYVSRTDLFTDLDYLDRYYEPVNQTYLAFLKDSRFQQYISKTLYIRQVQSHTSLCYTSPVTEETLARIHTLAHEMIDRWLGWVDEAEPVAESERDALSERDLFVRRTVAERDPDNQIAVRLFGAEMTDKLVRSLWGGDRIL", "soluble on expression in E. coli": "not soluble"}
{"sequence": "MSLITHISPLGSMDMLSQLEVDMLKRTASSDLYQLFRNCSLAVLNSGSLTDNSKELLSRFENFDINVLRRERGVKLELINPPEEAFVDGRIIRALQANLFAVLRDILFVYGQIHNTVRFPNLNLDNSVHITNLVFSILRNARALHVGEAPNMVVCWGGHSINENEYLYARRVGNQLGLRELNICTGCGPGAMEAPMKGAAVGHAQQRYKDSRFIGMTEPSIIAAEPPNPLVNELIIMPDIEKRLEAFVRIAHGIIIFPGGVGTAEELLYLLGILMNPANKDQVLPLILTGPKESADYFRVLDEFVVHTLGENARRHYRIIIDDAAEVARQMKKSMPLVKENRRDTGDAYSFNWSMRIAPDLQMPFEPSHENMANLKLYPDQPVEVLAADLRRAFSGIVAGNVKEVGIRAIEEFGPYKINGDKEIMRRMDDLLQGFVAQHRMKLPGSAYIPCYEICTEGHHHHHH", "soluble on expression in E. coli": "soluble"}
{"sequence": "FSDILEDRIERLNACFAKAIARYNYPGVYRGVFPVKCNQERHLIEDLVKFGKPHQFGLEAGSKPELMIALAVLDTPGALLVCNGYKDREYIETAMLAQRLGQTPIIVLEQIEEVDLVIDANRQLGIKPILGVRAKLSTQGMGRWGASSGDRAKFGLTMPEVIEAVDKLREANLLDSLQLMHFHIGSQISAINVIKDAIQEASRIYVELAMLGADMKYLDVGGGLGVDYDGSQTNFYASKNYNMQNYANDIVAELKDTCAERQITVPTLISESGRAIAS", "soluble on expression in E. coli": "not soluble"}
{"sequence": "MGSDKIHHHHHHMWFRNLLVYRLTQDLQLDADSLEKALGEKSARPCASQELTTYGFTAPFGKGPDAPLVHVSQDFFLISARKEERILPGSVVRDALKEKVDEIEAQQMRKVYKKERDQLKDEIVQTLLPRAFIRRSSTFAAIAPSLGLILVDSASAKKAEDLLSTLREALGSLPVRPLSVKVAPTATLTDWVKTQEAAGDFHVLDECELRDTHEDGGVVRCKRQDLTSEEIQLHLTAGKLVTQLSLAWSDKLSFVLDDKLAVKRLRFEDLLQEQAEKDGGEDALGQLDASFTLMMLTFAEFLPALFEALGGEEIPQGV", "soluble on expression in E. coli": "not soluble"}
{"sequence": "MKWYTKYLQVYEKPFSEAPQEIVEEVRNKLKLLQSDNPLVTVSLIGYNEEKHLLASLWSLSEMKCKYPIEIIGTDNDSKDQTATIYEATGIPYVIEHQHSCGHARLCGLKRAKGKYHINIDSDTMYPPHYVETMVDALERPGIVAVSSLWSYIPDKEHSWVGLKIYEFIRDIHLWIQSIKRPELSVRGLVFAYRTDYARQVGIRTDIRRGEDGSLALRLKEYGNIYFIRKRKARAITGYGTISADGSLFNSFKVRAIYALKNIGRVFTRKKEYKDEDDNLIKS", "soluble on expression in E. coli": "not soluble"}
{"sequence": "MKLEDLPKYYSPKSPGLTDASASTSKDALSITDVMAAQGMTQNRAEMGFSAFLGKMGISMNDRARATELLADYALSRCDRVAALRKLPAEIKPVVMRIMASYAFEDYARSAASKKQCPCCYGEKFIESVVFTNKVQYPDGKPPVWAKCTKGVYPSYWEEWKKVREVVKVACPECGGKGEVSTACKDCRGRGVAIHREESVKRGMPVIRDCQRCGGRGYERLPSTEVFNAICEVTNQITRASWEKTVKKFYDALVTRFDIEEAWAERQLKKVTR", "soluble on expression in E. coli": "not soluble"}
{"sequence": "MPSIRVVNLKKYFGKVKAVDGVSFEVKDGEFVALLGPSGCGKTTTLLMLAGIYKPTSGEIYFDDVLVNDIPPKYREVGMVFQNYALYPHMTVFENIAFPLRARRISKDEVEKRVVEIARKLLIDNLLDRKPTQLSGGQQQRVALARALVKQPKVLLFDEPLSNLDANLRMIMRAEIKHLQQELGITSVYVTHDQAEAMTMASRIAVFNQGKLVQYGTPDEVYDSPKNMFVASFIGNPPTNFLRDFSVSVENKQTILKRDDVIIKLPEPVDVKLKEVVVGIRPEHCRISRERVENSIPGVVYVVEPLGRDIIVNVKTEKGEIIKVFGDTGKAPQPGENVFLVPDLRKIHLFNPETEETIL", "soluble on expression in E. coli": "soluble"}
{"sequence": "GKQNTSAIEALAPHSVVFTTAGGSSPEFTSSEISEQQAERWKDSTPLGVSQTRIESDQNANTTAVMGLPEGTPLPDSVGGFIEQGALLPAELADFLHVRA", "soluble on expression in E. coli": "not soluble"}
{"sequence": "GSPPAQLSVHTVSWNSGHERAPTNLEELLGLNSGETPDVIAVAVQGFGFQTDKPQQGPACVKNFQSLLTSKGYTKLKNTITETMGLTVYCLEKHLDQNTLKNETIIVTVDDQKKSGGIVTSFTIYNKRFSFTTSRMSDEDVTSTNTKYAYDTRLDYSKKDDPSDFLFWIGDLNVRVETNATHAKSLVDQNNIDGLMAFDQLKKAKEQKLFDGWTEPQVTFKPTYKFKPNTDEYDLSATPSWTDRALYKSGTGKTIQPLSYNSLTNYKQTEHRPVLAKFRVTL", "soluble on expression in E. coli": "soluble"}
{"sequence": "MGSDKIHHHHHHMEILSVGEKIKRARIYKRLTLKDICDDKVSVSKMSCIENGKITPDNEILEFVAKKLNVALDYLKYDVKDQFQSNLDNLKDIEEGKKDEYLRYNVYYAEQYEYYDIAFQFMHELFNLYVNKNKLDIVQSLTSEYYDICRKVTDCDNRSMYNLDIGKYLLASREYRQAINYYSRVRKELKTGFSENKKRIKMLIESYYYETLSYILCEDYDNAYELEKELLELIEYVDTDNQHAKIYSVMMFLCLKKNIDQFDYYKEKIENYCDINSEIKARVMYVCALKMINDEKVEEAKGYIAKALEQFQGKIENKYIPFIVELVNEVSRRNNLERYRGICDLILDYSIGIENSVLMERCYYLKSRIFKASNDLESYEMYMNLALDLLIKSGNEDDIYTRYMEMGNMYSTLGNVKDALRYFNLAINMSNKM", "soluble on expression in E. coli": "not soluble"}
{"sequence": "MDSARTFESIVIIFNPNSTGDAPELAQQLHGKLKELLTYQPEITLQPTEHAGHAVDLAREAASKGGDVLVVSVSGDGGYNEVVNGVMQADNPRAVAAVLAAGNANDHSRIIGTKPLEEAIAEGRVHNIDLLRIHTGQKENEPLEYAHSYIGFGLTPVVATELEKGSKGALKEMVTVIKSFSEFQPFAIRQSDGKRRKFDSLVFANINEMAKYATLSEAEDHPSDGKFEVIVFPHMPKWRVLLTALKATTQGLGDQPSVSSYEFTTLKPLPYQMDGEVKSVEANVKVTVESAPQALATLG", "soluble on expression in E. coli": "soluble"}
{"sequence": "MKVDKETIEYVANLARLRLSEKEKEKLALDLESIISYVDKLNELDTSKIIPTDHVIPIKNVFRDDEVRDSYPKDKMLMNAPEKEDGCFKVPKVVE", "soluble on expression in E. coli": "soluble"}
{"sequence": "MGPVFVVGQIDEMVPHPDSDHLNICQVNIGDKKVQIVAGAPNASPGLKTIVALPGAMMPSGALIFPGKLRGEDSYGMMCSPRELALPNAPQKRGIIELDDSAVVGEALEHHHHHH", "soluble on expression in E. coli": "not soluble"}
{"sequence": "MGSDKIHHHHHHEEQKVCHMDDECVEVGQWQLGLALGYGERSNPVRDYDDIPIYLAPTLAYYGDRWFFDNGNLGYTLADEELFSVNLTTSFSSDSAYFYRWDPSNIFISGTSQLSSTPSAFTSRFQAFGAEPEPVFNELEDRKFTLLGGAEAFIYTPMGIINLALAHDLFDVHSGMEAKVKWLYNLSWTDWKFEFAAVANWKSEEIINYYYGVRPSENTYWSERYRAGSGTNLGLELTTQYIMSEHWELLFLVRYTDLADEITASPLVTESYTNTYFIGTAYRF", "soluble on expression in E. coli": "not soluble"}
{"sequence": "MSLTIIHPLLASRSAPNYRQSWRLAGVWRRAINLMTESGELLTLHRQGSGFGPGGWVLRRAQFDALCGGLCGNERPQVVAQGIRLGRFTVKQPQRYYLLRITPPAHPQALAVAWMQRAEETGLFGPLALAASDPLPAELRQFRHCFQAALNGVKTDWRHWLGKGPGLTPSHDDTLSGMLLAAWYYGALDARSGRPFFACSDNLQLVTTAVSVSYLRYAAQGYFASPLLHFVHALSCPKRTAAAIDSLLALGHTSGADTLLGFWLGQQLLQGKEGHHHHHH", "soluble on expression in E. coli": "soluble"}
{"sequence": "MNYNPEEQFRCTIIRGKAKNMLDNLLPAYANIIDDICPCDKASFVKDFNNRLIEILGEETTKKTLDNHRTEIAGKLFGMFYEDDEVIFPSGRTNKYIEDSDQPAFFKDICFKFQFPNGMDKLDKVIEKVGAKIQIRQFPYILQVLLTADNNNIQLSKDDIAYYVLNSLQVLQGKIKPIEVIEKIIEDRSNDITKKVRHPGKETSYSMQHIREQLNYLELANLIRIDGNLVKLNYREAENINYIAQFWGNKPEFNAYKYDFTSEDDKKSFFKDWQQYYSNVNSHKS", "soluble on expression in E. coli": "soluble"}
{"sequence": "MALTVAKSALEAIREKGLGGFMRMIREEGFMRCLPDGNLLQTKIHNIGATLVGVDKFGNKYYQKLGDTQYGRHRWVEYASKDRYNASQVPAEWHGWLHFITDHTGDELLSLKPKRYGLEHKENFSGEGDAYIYHSKGHTLNPGQKNWTRYQSWVPTKTQ", "soluble on expression in E. coli": "not soluble"}
{"sequence": "GTERPYGQREVDHYAEKQAIAERAAQEVREGQVVCFDAGSTTMEVARAIPDTDYVAATNMPDLATELAEGDVDTKLTGGSLRPRTRALVGPTAERAVERMNFDLLFLGTNALDSAAGLSTPNEDEAAIKELMVERARRVVLVADASKFGDR", "soluble on expression in E. coli": "not soluble"}
